Measured values taken from US20200173960A1.

Assays:
bevacizumab [1] = assay: Bevacizumab PK ELISA (anti-idiotype capture) of bevacizumab 50 ug/mL pre-bound with ADA; bevacizumab:ADA 100:1
bevacizumab [2] = assay: Bevacizumab PK ELISA (anti-idiotype capture) of bevacizumab 0.5 ug/mL pre-bound with ADA; bevacizumab:ADA 10:1
bevacizumab [3] = assay: Bevacizumab PK ELISA (anti-idiotype capture) of bevacizumab 0.5 ug/mL pre-bound with ADA; bevacizumab:ADA 1:2
bevacizumab [4] = assay: cell-based or functional assay
bevacizumab [5] = assay: Bevacizumab PK ELISA (anti-idiotype capture) of bevacizumab 0.5 ug/mL pre-bound with ADA; bevacizumab:ADA 1:100
bevacizumab [6] = assay: Bevacizumab PK ELISA (anti-idiotype capture) of bevacizumab 50 ug/mL pre-bound with ADA; bevacizumab:ADA 5:1
bevacizumab [7] = assay: Bevacizumab PK ELISA (anti-idiotype capture) of bevacizumab 0.5 ug/mL pre-bound with ADA; bevacizumab:ADA 5:1
bevacizumab [8] = assay: Bevacizumab PK ELISA (anti-idiotype capture) of bevacizumab 0.5 ug/mL pre-bound with ADA; bevacizumab:ADA 1:10
bevacizumab [9] = assay: Bevacizumab PK ELISA (anti-idiotype capture) of bevacizumab 50 ug/mL pre-bound with ADA; bevacizumab:ADA 1:1
bevacizumab [10] = assay: Bevacizumab PK ELISA (anti-idiotype capture) of bevacizumab 50 ug/mL pre-bound with ADA; bevacizumab:ADA 10:1
bevacizumab [11] = assay: Bevacizumab PK ELISA (anti-idiotype capture) of bevacizumab 0.5 ug/mL pre-bound with ADA; bevacizumab:ADA 1:1
bevacizumab [12] = assay: method not stated; affinity listed for the purchased ADA
bevacizumab [13] = assay: Bevacizumab PK ELISA (anti-idiotype capture) of bevacizumab 0.5 ug/mL pre-bound with ADA; bevacizumab:ADA 1:50
bevacizumab [14] = assay: Bevacizumab PK ELISA (anti-idiotype capture) of bevacizumab 0.5 ug/mL pre-bound with ADA; bevacizumab:ADA 1:5

Accuracy (%) ELISA (bevacizumab [1]): 95.6% | Accuracy (%) ELISA (bevacizumab [2]): 104% | Accuracy (%) ELISA (bevacizumab [3]): 55.8% | Accuracy (%) nSMOL; bevacizumab 0.5 ug/mL; bevacizumab:ADA 1:1 (bevacizumab [4]): 95.5% | Accuracy (%) nSMOL; bevacizumab 0.5 ug/mL; bevacizumab:ADA 1:2 (bevacizumab [4]): 82.1% | Accuracy (%) nSMOL; bevacizumab 0.5 ug/mL; bevacizumab:ADA 1:5 (bevacizumab [4]): 54.8% | Accuracy (%) nSMOL; bevacizumab 0.5 ug/mL; bevacizumab:ADA 1:10 (bevacizumab [4]): 22.8% | Accuracy (%) nSMOL; bevacizumab 0.5 ug/mL; bevacizumab:ADA 1:50 (bevacizumab [4]): 22.9% | Accuracy (%) nSMOL; bevacizumab 0.5 ug/mL; bevacizumab:ADA 1:100 (bevacizumab [4]): 23.1% | Accuracy (%) nSMOL; bevacizumab 0.5 ug/mL; bevacizumab:ADA 5:1 (bevacizumab [4]): 105% | Accuracy (%) nSMOL; bevacizumab 0.5 ug/mL; bevacizumab:ADA 10:1 (bevacizumab [4]): 107% | Accuracy (%) nSMOL; bevacizumab 50 ug/mL; bevacizumab:ADA 1:1 (bevacizumab [4]): 75.7% | Accuracy (%) nSMOL; bevacizumab 50 ug/mL; bevacizumab:ADA 5:1 (bevacizumab [4]): 90.3% | Accuracy (%) nSMOL; bevacizumab 50 ug/mL; bevacizumab:ADA 10:1 (bevacizumab [4]): 95.8% | Accuracy (%) nSMOL; bevacizumab 50 ug/mL; bevacizumab:ADA 100:1 (bevacizumab [4]): 100% | Accuracy (%) nSMOL; bevacizumab first immobilized on Protein A; bevacizumab:ADA 1:1 (bevacizumab [4]): 58.9% | Accuracy (%) nSMOL; bevacizumab first immobilized on Protein A; bevacizumab:ADA 5:1 (bevacizumab [4]): 90% | Accuracy (%) nSMOL; bevacizumab first immobilized on Protein A; bevacizumab:ADA 10:1 (bevacizumab [4]): 106% | Accuracy (%) nSMOL; bevacizumab first immobilized on Protein A; bevacizumab:ADA 100:1 (bevacizumab [4]): 105% | inhibitory effect on quantification values (nSMOL), ratio 1:1 (bevacizumab [4]): 50% | Accuracy (%) ELISA (bevacizumab [5]): 35.2% | Accuracy (%) ELISA (bevacizumab [6]): 76.2% | Accuracy (%) ELISA (bevacizumab [7]): 86.6% | Accuracy (%) ELISA (bevacizumab [8]): 38.9% | Accuracy (%) ELISA (bevacizumab [9]): 76.8% | Accuracy (%) ELISA (bevacizumab [10]): 84.1% | Accuracy (%) ELISA (bevacizumab [11]): 73.5% | Kd (bevacizumab [12]): 0.4 nM | Accuracy (%) ELISA (bevacizumab [13]): 37.2% | Accuracy (%) ELISA (bevacizumab [14]): 39.6%
Substance: HCA185 (antibody)
